2 proteins from patent US20110086089 can be followed below.

Data set [1] has as its target p27.Pi-S83, p27 pre-phosphorylated in vitro by CK2-alpha-prime at S83.
For data set [2], the target named is p27.Pi-T187, p27 pre-phosphorylated in vitro by CK2-alpha-prime at T187.
Data set [3] deals with p27.T187A (recombinant, His-tagged).
The target in data set [4] is p27deltaPi (p27.S83A/T187A; recombinant, His-tagged).
Data set [5] has as its target phosphomimicking mutant p27.S83D/T187D (recombinant, His-tagged).
Data set [6] concerns the target p27.Pi-S83/T187, p27 pre-phosphorylated in vitro by CK2-alpha-prime at S83 and T187.
The target of data set [7] is recombinant His-tagged wt.p27.
The target of data set [8] is p27.S83A (recombinant, His-tagged).
Chain of p27.S83A (recombinant, His-tagged) (chain, as listed by the source S83A): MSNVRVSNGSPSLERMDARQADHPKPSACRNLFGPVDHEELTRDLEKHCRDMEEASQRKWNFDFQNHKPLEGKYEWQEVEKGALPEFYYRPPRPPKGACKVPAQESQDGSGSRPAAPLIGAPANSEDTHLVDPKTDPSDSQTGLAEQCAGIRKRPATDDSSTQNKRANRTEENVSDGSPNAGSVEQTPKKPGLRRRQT

Chain of p27deltaPi (p27.S83A/T187A; recombinant, His-tagged) (chain, as listed by the source S83A T187A): as the sequence (chain, as listed by the source S83A) above, with T187A counted along it
Chain of p27.Pi-T187, p27 pre-phosphorylated in vitro by CK2-alpha-prime at T187 (chain, as listed by the source): as the sequence (chain, as listed by the source S83A) above
Chain of phosphomimicking mutant p27.S83D/T187D (recombinant, His-tagged) (chain, as listed by the source S83D T187D): as the sequence (chain, as listed by the source S83A) above, with A83D, T187D counted along it

B1: recombinant active His-tagged CK2-alpha-prime/beta (protein)
chain 1: MPGPAAGSRARVYAEVNSLRSREYWDYEAHVPSWGNQDDYQLVRKLGRGKYSEVFEAINITNNERVVVKILKPVKKKKIKREVKILENLRGGTNIIKLIDTVKDPVSKTPALVFEYINNTDFKQLYQILTDFDIRFYMYELLKALDYCHSKGIMHRDVKPHNVMIDHQQKKLRLIDWGLAEFYHPAQEYNVRVASRYFKGPELLVDYQMYDYSLDMWSLGCMLASMIFRREPFFHGQDNYDQLVRIAKVLGTEELYGYLKKYHIDLDPHFNDILGQHSRKRWENFIHSENRHLVSPEALDLLDKLLRYDHQQRLTAKEAMEHPYFYPVVKEQSQPCADNAVLSSGLTAAR
chain 2: not shown
As to B1, the “recombinant CK2-alpha-prime activity in vitro (32P incorporated into histone H1)” value is listed as “an incremental loss of p27 inhibitory activity towards CK2-alpha-prime when compared to wt.p27” in data set [1]; “an incremental loss of p27 inhibitory activity towards CK2-alpha-prime when compared to wt.p27” in data set [2]; “Simultaneous phosphorylation of S83/T187 in p27.Pi-S83/T187 or introducing phosphomimicking mutations in p27.S83D/T187D abolished the ability of p27 to inhibit CK2-alpha-prime” in data set [5]; “Simultaneous phosphorylation of S83/T187 in p27.Pi-S83/T187 or introducing phosphomimicking mutations in p27.S83D/T187D abolished the ability of p27 to inhibit CK2-alpha-prime” in data set [6]; “Wt.p27 completely inhibited recombinant CK2-alpha-prime activity in vitro” in data set [7]. The “reduction in phosphorylation by CK2-alpha-prime” value in data set [3] was “The S83A and T187A point mutants exhibited a 68% and 27% reduction in phosphorylation by CK2-alpha-prime, respectively”; in data set [8], “The S83A and T187A point mutants exhibited a 68% and 27% reduction in phosphorylation by CK2-alpha-prime, respectively”. For the same protein, the results for the “phosphorylation of p27 in in vitro kinase reactions (32P incorporated into p27)” value in data set [4] and in data set [7] were “CK2-alpha-prime failed to phosphorylate p27deltaPi containing double-substituted mutations (S83A/T187A)” and “Wt.p27 was phosphorylated by CK2-alpha-prime”, respectively.

B2: catalytically-inactive kinase-dead CK2-alpha-prime (kd.CK2-alpha-prime), K69M (protein)
chain: MPGPAAGSRARVYAEVNSLRSREYWDYEAHVPSWGNQDDYQLVRKLGRGKYSEVFEAINITNNERVVVMILKPVKKKKIKREVKILENLRGGTNIIKLIDTVKDPVSKTPALVFEYINNTDFKQLYQILTDFDIRFYMYELLKALDYCHSKGIMHRDVKPHNVMIDHQQKKLRLIDWGLAEFYHPAQEYNVRVASRYFKGPELLVDYQMYDYSLDMWSLGCMLASMIFRREPFFHGQDNYDQLVRIAKVLGTEELYGYLKKYHIDLDPHFNDILGQHSRKRWENFIHSENRHLVSPEALDLLDKLLRYDHQQRLTAKEAMEHPYFYPVVKEQSQPCADNAVLSSGLTAAR
Consider B2, for which the “phosphorylation of p27 in in vitro kinase reactions (32P incorporated into p27)” value in data set [7] was “Wt.p27 was phosphorylated by CK2-alpha-prime but not catalytically-inactive kinase-dead CK2-alpha-prime (kd. CK2-alpha-prime)”.
